These results are taken from patent publication US20190276511A1 (BIONTECH RNA PHARMACEUTICALS, published 2019).

For assay [1], the target named is T1, 4-1BB-Fc (human, UniProt Q07011 24-186).
T1 construct: extracellular domain; hinge included for covalent assembly; also called 4-1BB receptor-Fc fusion protein; not shown: human Fc gamma 1 region including the hinge region
Kind of assay: ELISA, coated receptor-Fc. The protocol: (§1) Receptor binding of the Duokines was analyzed by ELISA using fusion proteins of the extracellular region of CD40, CD27, 4-1BB and OX40, respectively, with the human Fcγ1 region including the hinge region for covalent assembly (CD40-Fc, CD27-Fc, 4-1BB-Fc, OX40-Fc). Receptor-Fc fusion proteins (200 ng/well) were coated overnight at 4° C. and remaining binding sites were blocked with PBS, 2% skimmed milk powder (2% MPBS).

The target of assay [2] is T2, CD40-Fc (human, UniProt P25942 21-193).
T2 construct: extracellular domain; hinge included for covalent assembly; also called CD40 receptor-Fc fusion protein; not shown: human Fc gamma 1 region including the hinge region
Kind of assay: ELISA, coated receptor-Fc. The protocol: as §1
A general note: ELISA stands for enzyme-linked immunosorbent assay.

The next assay concerns the target 4-1BB receptor on cells (human, UniProt Q07011 24-255). Kind of assay: cell-based or functional assay.
In assay [3] the target is T3, CD40 receptor on cells (human, UniProt P25942 21-277). Kind of assay: cell-based or functional assay.
The target of assay [4] is T4, CD27-Fc (human, UniProt P26842 20-191).
T4 construct: extracellular domain; hinge included for covalent assembly; also called CD27 receptor-Fc fusion protein; not shown: human Fc gamma 1 region including the hinge region
T4 sequence (looked up): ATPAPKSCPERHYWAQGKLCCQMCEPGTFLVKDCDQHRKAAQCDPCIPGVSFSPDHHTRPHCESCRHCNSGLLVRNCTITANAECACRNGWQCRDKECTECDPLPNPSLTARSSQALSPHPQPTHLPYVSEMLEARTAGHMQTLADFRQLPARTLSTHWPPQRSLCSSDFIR
Kind of assay: ELISA, coated receptor-Fc.

Assay [5] addresses T5, OX40-Fc (human, UniProt P43489 29-214).
T5 construct: extracellular domain; hinge included for covalent assembly; also called OX40 receptor-Fc fusion protein; not shown: human Fc gamma 1 region including the hinge region
T5 sequence (looked up): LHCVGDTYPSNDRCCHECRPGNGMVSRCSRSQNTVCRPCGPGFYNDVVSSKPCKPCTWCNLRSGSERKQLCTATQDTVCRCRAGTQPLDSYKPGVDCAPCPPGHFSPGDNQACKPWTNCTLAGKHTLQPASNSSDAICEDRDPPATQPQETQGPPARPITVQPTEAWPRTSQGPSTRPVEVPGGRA
Kind of assay: ELISA, coated receptor-Fc.

Assay [6] concerns the target T4, CD27-Fc. Kind of assay: ELISA, coated receptor-Fc. How it is done: as §1
The source holds these as a separate data set.

The target of assay [7] is T2, CD40-Fc. Kind of assay: ELISA, coated receptor-Fc. This is another data set of the same source.
For assay [8], the target named is T6, OX40 receptor on cells (human, UniProt P43489 29-277).
T6 sequence (looked up): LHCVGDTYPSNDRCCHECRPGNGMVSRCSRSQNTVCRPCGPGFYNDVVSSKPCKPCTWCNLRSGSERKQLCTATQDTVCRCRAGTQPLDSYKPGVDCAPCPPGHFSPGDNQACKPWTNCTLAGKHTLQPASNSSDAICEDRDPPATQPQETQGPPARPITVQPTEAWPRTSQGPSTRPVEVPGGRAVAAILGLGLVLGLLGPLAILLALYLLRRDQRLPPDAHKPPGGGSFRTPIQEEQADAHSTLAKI
Kind of assay: cell-based or functional assay.

For assay [9], the target named is T3, CD40 receptor on cells. Kind of assay: cell-based or functional assay. This is another data set of the same source.
The target in assay [10] is T5, OX40-Fc. Kind of assay: ELISA, coated receptor-Fc. The protocol:
(§2) Receptor binding of the single-chain Duokines was analyzed by ELISA using fusion proteins of the extracellular region of CD40, CD27, 4-1BB and OX40, respectively, with the human Fcγ1 region including the hinge region for covalent assembly (CD40-Fc, CD27-Fc, 4-1BB-Fc, OX40-Fc). Receptor-Fc fusion proteins (200 ng/well) were coated overnight at 4° C. and remaining binding sites were blocked with PBS, 2% skimmed milk powder (2% MPBS). […] The interactions between scDuokine and receptor were dose-dependent with EC₅₀ values in the low nanomolar ranges (FIG. 11 AB, Tab. 2).
This is another data set of the same source.

Assay [11] has as its target T2, CD40-Fc. Kind of assay: ELISA, coated receptor-Fc. How it is done: as §2
The source holds these as a separate data set.

Assay [12] concerns the target T1, 4-1BB-Fc. Kind of assay: ELISA, coated receptor-Fc. The source holds these as a separate data set.
The target in assay [13] is T5, OX40-Fc. Kind of assay: ELISA, coated receptor-Fc. How it is done:
as §1
The source holds these as a separate data set.

The target in assay [14] is T6, OX40 receptor on cells. Kind of assay: cell-based or functional assay. This is another data set of the same source.
The target in assay [15] is T4, CD27-Fc. Kind of assay: ELISA, coated receptor-Fc. How it is done:
as §2
The source holds these as a separate data set.

As usually defined, the EC50 is the concentration that produces a half-maximal response.

Where two headings read alike, the source gives them in different places.

T2 sequence (P25942 21-193 limits assumed): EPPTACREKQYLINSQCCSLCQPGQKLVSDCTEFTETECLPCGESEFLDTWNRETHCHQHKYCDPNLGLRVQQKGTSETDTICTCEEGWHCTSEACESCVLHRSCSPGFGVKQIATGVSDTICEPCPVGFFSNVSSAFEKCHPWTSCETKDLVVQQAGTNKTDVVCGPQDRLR
4-1BB receptor on cells, sequence (Q07011 24-255): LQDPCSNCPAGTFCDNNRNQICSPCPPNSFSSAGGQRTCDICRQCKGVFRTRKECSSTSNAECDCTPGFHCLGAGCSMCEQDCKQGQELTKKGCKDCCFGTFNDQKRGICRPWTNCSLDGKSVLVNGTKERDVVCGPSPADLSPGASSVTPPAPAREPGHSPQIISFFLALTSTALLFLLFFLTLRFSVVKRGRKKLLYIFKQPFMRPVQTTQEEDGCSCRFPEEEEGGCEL
T3 sequence (P25942 21-277): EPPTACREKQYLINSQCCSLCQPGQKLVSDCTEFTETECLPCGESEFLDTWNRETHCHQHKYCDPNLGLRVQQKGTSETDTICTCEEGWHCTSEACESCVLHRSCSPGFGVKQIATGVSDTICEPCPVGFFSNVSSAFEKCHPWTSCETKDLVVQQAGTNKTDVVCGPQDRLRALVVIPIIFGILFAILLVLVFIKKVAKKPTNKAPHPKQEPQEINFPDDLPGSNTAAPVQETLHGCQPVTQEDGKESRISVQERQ

B1: CD40L-4-1BBL (ligand)
chain: GDQNPQIAAHVISEASSKTTSVLQWAEKGYYTMSNNLVTLENGKQLTVKRQGLYYIYAQVTFCSNREASSQAPFIASLCLKSPGRFERILLRAANTHSSAKPCGQQSIHLGGVFELQPGASVFVNVTDPSQVSHGTGFTSFGLLKLGGGGSGGGGSGGGGSGGGGSREGPELSPDDPAGLLDLRQGMFAQLVAQNVLLIDGPLSWYSDPGLAGVSLTGGLSYKEDTKELVVAKAGVYYVFFQLELRRVVAGEGSGSVSLALHLQPLRSAAGAAALALTVDLPPASSEARNSAFGFQGRLLHLSAGQRLGVHLHTEARARHAWQLTQGATVLGLFRVTPEIPAGLPSPRSE
notes: Duokine from HEK293, FLAG-purified; VH leader left out; homotrimer by SEC; also called Duokine CD40L-4-1BBL; not shown: N-terminal FLAG tag
As for B1, the EC50 with 4-1BB-Fc [1] was 2.11 nM; in the assay with CD40-Fc [2] it was 10.1 nM. The “Receptor activation (EC50, nM)” value with 4-1BB receptor on cells was found to be 0.45 nM; with CD40 receptor on cells [3], 3.01 nM. In addition, the binding result with CD27-Fc [4] and with OX40-Fc [5] was “no binding (tested: 100 nM (FIG. 4))” throughout.

B2: CD27L-4-1BBL (ligand)
chain: SLGWDVAELQLNHTGPQQDPRLYWQGGPALGRSFLHGPELDKGQLRIHRDGIYMVHIQVTLAICSSTTASRHHPTTLAVGICSPASRSISLLRLSFHQGCTIASQRLTPLARGDTLCTNLTGTLLPSRNTDETFFGVQWVRPGGGGSGGGGSGGGGSGGGGSREGPELSPDDPAGLLDLRQGMFAQLVAQNVLLIDGPLSWYSDPGLAGVSLTGGLSYKEDTKELVVAKAGVYYVFFQLELRRVVAGEGSGSVSLALHLQPLRSAAGAAALALTVDLPPASSEARNSAFGFQGRLLHLSAGQRLGVHLHTEARARHAWQLTQGATVLGLFRVTPEIPAGLPSPRSE
notes: Duokine from HEK293, FLAG-purified; VH leader left out; homotrimer by SEC; also called Duokine CD27L-4-1BBL; not shown: N-terminal FLAG tag
On to B2, for which the EC50 in the assay with 4-1BB-Fc [1] came out at 1.41 nM; in the assay with CD27-Fc [6], 6.34 nM. Further, the “Receptor activation (EC50, nM)” value with 4-1BB receptor on cells stood at 1.44 nM. In addition, the binding result with OX40-Fc [5] and in the assay with CD40-Fc [7] was “no binding (tested: 100 nM (FIG. 4))” in each case.

B3: scOX40L-scCD40L (ligand)
chain: QVSHRYPRIQSIKVQFTEYKKEKGFILTSQKEDEIMKVQNNSVIINCDGFYLISLKGYFSQEVNISLHYQKDEEPLFQLKKVRSVNSLMVASLTYKDKVYLNVTTDNTSLDDFHVNGGELILIHQNPGEFCVLGGGSGGGQVSHRYPRIQSIKVQFTEYKKEKGFILTSQKEDEIMKVQNNSVIINCDGFYLISLKGYFSQEVNISLHYQKDEEPLFQLKKVRSVNSLMVASLTYKDKVYLNVTTDNTSLDDFHVNGGELILIHQNPGEFCVLGGGSGGGQVSHRYPRIQSIKVQFTEYKKEKGFILTSQKEDEIMKVQNNSVIINCDGFYLISLKGYFSQEVNISLHYQKDEEPLFQLKKVRSVNSLMVASLTYKDKVYLNVTTDNTSLDDFHVNGGELILIHQNPGEFCVLGGGGSGGGTGGGGSGDQNPQIAAHVISEASSKTTSVLQWAEKGYYTMSNNLVTLENGKQLTVKRQGLYYIYAQVTFCSNREASSQAPFIASLCLKSPGRFERILLRAANTHSSAKPCGQQSIHLGGVFELQPGASVFVNVTDPSQVSHGTGFTSFGLLKLGGGSGGGGDQNPQIAAHVISEASSKTTSVLQWAEKGYYTMSNNLVTLENGKQLTVKRQGLYYIYAQVTFCSNREASSQAPFIASLCLKSPGRFERILLRAANTHSSAKPCGQQSIHLGGVFELQPGASVFVNVTDPSQVSHGTGFTSFGLLKLGGGSGGGGDQNPQIAAHVISEASSKTTSVLQWAEKGYYTMSNNLVTLENGKQLTVKRQGLYYIYAQVTFCSNREASSQAPFIASLCLKSPGRFERILLRAANTHSSAKPCGQQSIHLGGVFELQPGASVFVNVTDPSQVSHGTGFTSFGLLKL
notes: scDuokine from HEK293, FLAG-purified; VH leader left out; also called single-chain Duokine scOX40L-scCD40L; not shown: N-terminal FLAG tag
In the case of B3, the “Receptor activation (EC50, nM)” value with OX40 receptor on cells [8] is 0.51 nM; with CD40 receptor on cells [9], 3.22 nM. The concentration giving a half-maximal response (EC50) is 2.13 nM with OX40-Fc [10] and 6.74 nM with CD40-Fc [11]. For the same molecule, the binding result with 4-1BB-Fc [12] and with CD27-Fc [4] was “no binding (tested: 100 nM (FIG. 10))” in each case.

B4: OX40L-4-1BBL (ligand)
chain: QVSHRYPRIQSIKVQFTEYKKEKGFILTSQKEDEIMKVQNNSVIINCDGFYLISLKGYFSQEVNISLHYQKDEEPLFQLKKVRSVNSLMVASLTYKDKVYLNVTTDNTSLDDFHVNGGELILIHQNPGEFCVLGGGGSGGGGSGGGGSGGGGSREGPELSPDDPAGLLDLRQGMFAQLVAQNVLLIDGPLSWYSDPGLAGVSLTGGLSYKEDTKELVVAKAGVYYVFFQLELRRVVAGEGSGSVSLALHLQPLRSAAGAAALALTVDLPPASSEARNSAFGFQGRLLHLSAGQRLGVHLHTEARARHAWQLTQGATVLGLFRVTPEIPAGLPSPRSE
notes: Duokine from HEK293, FLAG-purified; VH leader left out; homotrimer by SEC; also called Duokine OX40L-4-1BBL; not shown: N-terminal FLAG tag
On to B4, for which the concentration giving a half-maximal response (EC50) turned out to be 1.26 nM in the assay with 4-1BB-Fc [1] and 7.17 nM with OX40-Fc [13]. Moreover, the “Receptor activation (EC50, nM)” value with OX40 receptor on cells [14] stood at 0.85 nM; with 4-1BB receptor on cells it was 2.75 nM. Moreover, the binding result with CD27-Fc [4] and with CD40-Fc [7] was “no binding (tested: 100 nM (FIG. 4))” in each case.

B5: scCD27L-scOX40L (ligand)
chain: SLGWDVAELQLNHTGPQQDPRLYWQGGPALGRSFLHGPELDKGQLRIHRDGIYMVHIQVTLAICSSTTASRHHPTTLAVGICSPASRSISLLRLSFHQGCTIASQRLTPLARGDTLCTNLTGTLLPSRNTDETFFGVQWVRPGGGSGGGSLGWDVAELQLNHTGPQQDPRLYWQGGPALGRSFLHGPELDKGQLRIHRDGIYMVHIQVTLAICSSTTASRHHPTTLAVGICSPASRSISLLRLSFHQGCTIASQRLTPLARGDTLCTNLTGTLLPSRNTDETFFGVQWVRPGGGSGGGSLGWDVAELQLNHTGPQQDPRLYWQGGPALGRSFLHGPELDKGQLRIHRDGIYMVHIQVTLAICSSTTASRHHPTTLAVGICSPASRSISLLRLSFHQGCTIASQRLTPLARGDTLCTNLTGTLLPSRNTDETFFGVQWVRPGGGGSGGGTGGGGSQVSHRYPRIQSIKVQFTEYKKEKGFILTSQKEDEIMKVQNNSVIINCDGFYLISLKGYFSQEVNISLHYQKDEEPLFQLKKVRSVNSLMVASLTYKDKVYLNVTTDNTSLDDFHVNGGELILIHQNPGEFCVLGGGSGGGQVSHRYPRIQSIKVQFTEYKKEKGFILTSQKEDEIMKVQNNSVIINCDGFYLISLKGYFSQEVNISLHYQKDEEPLFQLKKVRSVNSLMVASLTYKDKVYLNVTTDNTSLDDFHVNGGELILIHQNPGEFCVLGGGSGGGQVSHRYPRIQSIKVQFTEYKKEKGFILTSQKEDEIMKVQNNSVIINCDGFYLISLKGYFSQEVNISLHYQKDEEPLFQLKKVRSVNSLMVASLTYKDKVYLNVTTDNTSLDDFHVNGGELILIHQNPGEFCVL
notes: scDuokine from HEK293, FLAG-purified; VH leader left out; also called single-chain Duokine scCD27L-scOX40L; not shown: N-terminal FLAG tag
In the case of B5, the “Receptor activation (EC50, nM)” value with OX40 receptor on cells [8] is 1.49 nM. For the same molecule, the figures for the concentration for a half-maximal effect (EC50) with CD27-Fc [15] and with OX40-Fc [10] were 7.34 nM and 286 nM, respectively. For the same molecule, the binding result with 4-1BB-Fc [12] and with CD40-Fc [7] was “no binding (tested: 100 nM (FIG. 10))” throughout.
